Measurements as given in publication PMC5084270 (The Journal of Cell Biology, 2016).

Molecular target: FLAG-DDB1 (UniProt Q16531 1-1140)
Assay: pull-down

Sequence of FLAG-DDB1 (Q16531 whole entry): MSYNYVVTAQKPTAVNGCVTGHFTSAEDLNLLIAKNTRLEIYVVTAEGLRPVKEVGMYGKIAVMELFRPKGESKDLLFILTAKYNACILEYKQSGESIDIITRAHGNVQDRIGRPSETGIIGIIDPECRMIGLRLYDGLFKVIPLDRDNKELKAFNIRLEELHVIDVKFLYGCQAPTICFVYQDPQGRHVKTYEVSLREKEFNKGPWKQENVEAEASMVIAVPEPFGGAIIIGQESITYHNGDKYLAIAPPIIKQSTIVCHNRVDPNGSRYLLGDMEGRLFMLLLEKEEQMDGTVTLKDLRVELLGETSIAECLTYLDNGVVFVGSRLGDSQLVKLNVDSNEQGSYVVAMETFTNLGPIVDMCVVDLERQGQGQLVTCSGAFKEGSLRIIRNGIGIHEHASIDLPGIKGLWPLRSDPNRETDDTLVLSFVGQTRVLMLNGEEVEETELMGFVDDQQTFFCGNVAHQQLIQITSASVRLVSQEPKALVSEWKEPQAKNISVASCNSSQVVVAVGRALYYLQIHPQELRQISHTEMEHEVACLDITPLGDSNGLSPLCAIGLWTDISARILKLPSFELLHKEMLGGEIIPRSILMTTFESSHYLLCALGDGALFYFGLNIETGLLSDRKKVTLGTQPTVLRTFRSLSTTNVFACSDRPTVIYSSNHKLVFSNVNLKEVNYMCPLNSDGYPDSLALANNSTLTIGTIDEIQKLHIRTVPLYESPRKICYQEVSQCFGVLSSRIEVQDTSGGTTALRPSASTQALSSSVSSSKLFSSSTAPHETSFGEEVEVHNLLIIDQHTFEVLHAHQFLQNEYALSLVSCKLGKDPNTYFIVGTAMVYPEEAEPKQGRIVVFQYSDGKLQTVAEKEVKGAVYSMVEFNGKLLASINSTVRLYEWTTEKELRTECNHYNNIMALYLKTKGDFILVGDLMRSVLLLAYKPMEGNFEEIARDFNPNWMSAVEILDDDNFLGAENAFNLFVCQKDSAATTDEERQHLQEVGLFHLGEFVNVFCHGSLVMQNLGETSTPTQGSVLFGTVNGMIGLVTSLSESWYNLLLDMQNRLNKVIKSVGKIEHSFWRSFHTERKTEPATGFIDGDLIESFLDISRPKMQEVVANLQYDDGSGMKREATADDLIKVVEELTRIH

binding result: binds
B1: GFP-DDB2 (natural protein)
chain: MAPKKRPETQKTSEIVLRPRNKRSRSPLELEPEAKKLCAKGSGPSRRCDSDCLWVGLAGPQILPPCRSIVRTLHQHKLGRASWPSVQQGLQQSFLHTLDSYRILQKAAPFDRRATSLAWHPTHPSTVAVGSKGGDIMLWNFGIKDKPTFIKGIGAGGSITGLKFNPLNTNQFYASSMEGTTRLQDFKGNILRVFASSDTINIWFCSLDVSASSRMVVTGDNVGNVILLNMDGKELWNLRMHKKKVTHVALNPCCDWFLATASVDQTVKIWDLRQVRGKASFLYSLPHRHPVNAACFSPDGARLLTTDQKSEIRVYSASQWDCPLGLIPHPHRHFQHLTPIKAAWHPRYNLIVVGRYPDPNFKSCTPYELRTIDVFDGNSGKMMCQLYDPESSGISSLNEFNPMGDTLASAMGYHILIWSQEEARTRK
